Numbering of substitutions follows the chain as printed. Numbers in names are those of the source. No end group written: not given here.
T1: Pep-3, NH2-LEEKKGNYVVTDHG-OH (human)
T1 construct: Free peptide used in Biacore and KinExA (MW 1590 Da)
T1 peptide: H-LEEKKGNYVVTDHG-OH

T2: EGFRvIII peptide-OVA (PEP3 14-mer conjugated to ovalbumin) (human, also: conjugated to OVA, chemistry not given here)
T2 construct: also called VIII-pep-OVA; muEGFr
T2 peptide: LEEKKGNYVVTDHC

B1: 13.1.2 variant Arg101Asp (antibody, V domains shown)
VH: QVQLVESGGGVVQPGRSLRLSCAASGFTFSSYGMHWVRQAPGKGLEWVAVIWYDGSNKYYVDSVKGRFTISRDNSKNTLYLQMNSLRAEDTAVYYCARDGWQQLAPFDYWGQGTLVTVSS
VL: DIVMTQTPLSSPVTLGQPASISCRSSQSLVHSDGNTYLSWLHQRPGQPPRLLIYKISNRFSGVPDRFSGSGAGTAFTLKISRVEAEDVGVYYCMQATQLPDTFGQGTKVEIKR
notes: Mutated chain co-transfected with the complementary wild-type chain in 293 cells; supernatant tested
B2: 13.1.2 variant Arg101Gln (antibody, V domains shown)
VH: B1 VH
VL: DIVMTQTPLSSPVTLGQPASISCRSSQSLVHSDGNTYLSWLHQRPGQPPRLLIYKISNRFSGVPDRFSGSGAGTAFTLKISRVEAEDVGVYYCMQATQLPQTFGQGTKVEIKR
notes: as for B1
B3: 13.1.2 variant Arg101Glu (antibody, V domains shown)
VH: B1 VH
VL: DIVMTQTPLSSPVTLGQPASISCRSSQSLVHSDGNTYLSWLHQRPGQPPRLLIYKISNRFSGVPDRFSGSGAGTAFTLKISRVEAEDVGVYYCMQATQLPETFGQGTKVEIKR
notes: as for B1
B4: AB-EGFRvIII-XG1-095 (antibody, V domains shown)
VH: QVQLQESGPFLVKPSQTLSLTCTVSGGSISSGGYYWSWIRQHPGKGLEWIGFIYYRGNTYYNPSLKSRVTISVDTSKNQFSLKLSSVTAADTAVYYCARDGYCSRTGCYGGWFDPWGQGTLVTVSP
VL: DIVMTQTPLSSPVTLGQPASISCRSSQSLIHTDGNIYLSWLQQRPGQPPRLLIYKISNRFSGVPDRFSGSGAGTDFTLKISRVEAEDVGVYYCMQGTQFPITFGQGTRLEIK
notes: also called SC95; sc95
B5: SC-EGFRvIII-XG2-150 (antibody, human IgG1, V domains shown)
VH: QVQLQQSGPGLVKPSQTLSLTCAISGDSVSSYSSAWNWIRQSPSRGLEWLGRAYHRSRWYYEYAVSVKSRINITPDTSKNQFSLQLNSVTPEDTAVYYCARGSRFDYWGQGTLVTVSS
VL: B4 VL with I30V, T32R, I36T, V90I, Y92F, Q95H, G96T, I101W, L109V
notes: XenoMax-derived from an XMG2 mouse; also called sc150; 182D5
B6: SC-EGFRvIII-XG2-170 (antibody, human IgG1, V domains shown)
VH: QVQLQQSGPGLVKPSQTLSLTCAISGDSVSSNNAAWNWIRQSPARGLEWLGRTYYRSKWYNDYVVSVKSRITINPDTSKNQFSLQLNSVTPEDTAVYYCVRATAFDYWGQGTLVTVSS
VL: AIVLTQTPLSSPVTLGQPASISCRSSQSLVHRDGNTYLSWLQQRPGQPPRLLIYKISNRFSGVPDRFSGSGAGTDFTLKISRVEPDDVGVYYCMHTTQLPWTFGQGTKVEIK
notes: XenoMax-derived from an XMG2 mouse; also called SC170; sc170
B7: SC-EGFRvIII-XG1-211 (antibody, V domains shown)
VH: QVQLVESGGGVVQPGRSLRLSCVASGFTLSSYGMHWVRQAPGKGLEWVAVTSYDGSKKDYADSAKGRFTISRDNSKNTLYLQMNSLRAEDTAVYYCVSEGYCSSSSCYKYYYYGMDVWGQGTTVTVSS
VL: DIVMTQSPLSLPVTPGEPASISCRSSQSLLYRNGNNYLDWYLQRPGQSPQLLIYLGSNRASGVPDRFSGSGSGTDFTLKISRVEAEDVGVYYCMQALQTPRTFGQGTKVEIK
notes: also called SC211; sc211
B8: SC-EGFRvIII-XG1-250 (antibody, V domains shown)
VH: EGQLLESGGGWVQPGESLRLSCAASGFTFSSYAMSWVRQAPGKGLEWVSAISGSGGSTNYADSVKGRFTISRDNSKNTLYLQVNSLRVEDTAVYYCAGSSGWSEYWGQGTLVTVSS
VL: DIQMTQSPSSLSASVGDSVTITCRTSQGIRKNLGWYQQKPGKAPKRLIYAASSLQSGVPSRFSGSGSGTEFTLTISRLQPEDFATYYCLQHHSYPLTFGGGTRVEIR
notes: also called SC250; sc250
B9: 13.1.2 variant L99H-9.2 (antibody, V domains shown)
VH: B1 VH
VL: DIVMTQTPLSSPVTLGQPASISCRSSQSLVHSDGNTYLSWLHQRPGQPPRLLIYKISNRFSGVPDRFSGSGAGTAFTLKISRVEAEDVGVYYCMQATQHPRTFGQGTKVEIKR
notes: also called Leu99His; 99His
B10: 13.1.2 variant L217N-2.1 (antibody, V domains shown)
VH: B1 VH with L104N
VL: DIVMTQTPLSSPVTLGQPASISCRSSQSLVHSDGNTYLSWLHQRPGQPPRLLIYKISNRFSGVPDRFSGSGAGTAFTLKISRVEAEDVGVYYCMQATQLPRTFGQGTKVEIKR
notes: also called Leu217Asn; 217Asn
B11: 13.1.2 variant L217Q-10.1 (antibody, V domains shown)
VH: B1 VH with L104Q
VL: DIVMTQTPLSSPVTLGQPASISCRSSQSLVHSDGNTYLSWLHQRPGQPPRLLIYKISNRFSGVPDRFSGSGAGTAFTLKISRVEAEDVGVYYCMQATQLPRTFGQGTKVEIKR
notes: also called Leu217Gln; 217Gln
B12: 13.1.2 variant N35G-3.1 (antibody, V domains shown)
VH: B1 VH
VL: DIVMTQTPLSSPVTLGQPASISCRSSQSLVHSDGGTYLSWLHQRPGQPPRLLIYKISNRFSGVPDRFSGSGAGTAFTLKISRVEAEDVGVYYCMQATQLPRTFGQGTKVEIKR
notes: also called Asn35Gly; 35Gly
B13: 13.1.2 variant Y172R-1.2 (antibody, V domains shown)
VH: B1 VH with Y59R
VL: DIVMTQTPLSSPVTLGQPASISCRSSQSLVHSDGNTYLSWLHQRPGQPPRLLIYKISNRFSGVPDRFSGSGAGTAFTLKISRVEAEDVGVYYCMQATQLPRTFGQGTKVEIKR
notes: also called Tyr172Arg; 172Arg
B14: SC-EGFRvIII-XG1-318 (antibody, human IgG1, V domains shown)
VH: B7 VH with A64V, S103D
VL: B7 VL
notes: XenoMax-derived; also called 141A10
B15: SC-EGFRvIII-XG1-123/124 (antibody, human IgG1, V domains shown)
VH: B7 VH with V23A, T51M, K58E, A64V, K76E, S105R
VL: B7 VL with R44K, K79N, V90H
notes: also called 129A7
B16: SC-EGFRvIII-XG1-333 (antibody, human IgG1, V domains shown)
VH: B7 VH with P41L, A64V, S103D, S105T
VL: B7 VL
notes: XenoMax-derived
B17: SC-EGFRvIII-XG1-342 (antibody, human IgG1, V domains shown)
VH: B7 VH with A64V, S103D, S105T
VL: B7 VL
notes: XenoMax-derived; also called 124D4

Target: EGFrVIII antigen (ELISA antigen of Examples 15, 17 and 21; form not stated) (human, UniProt P00533 298-645, limits assumed)
Test: ELISA, 293 cell supernatant on EGFrVIII antigen
Method: Each mutated chain was then transfected with the complementary wild-type chain in 293 cells. Supernatants were then tested for expression and secretion of human IgG antibodies, and for binding to EGFrVIII antigen.

Row | Binder | binding result
1 | B1 | no binding
2 | B2 | no binding
3 | B3 | no binding

Target: T3, EGFRvIII, full length, expressed by transfected cells (NR6 M, H1477, 300.19/EGFRvIII) (human, UniProt P00533 298-1210)
Test: cell-based or functional assay

Row | Binder | % internalization | FACS Geometric mean, With glutathione 4° C. | FACS Geometric mean, With glutathione 37° C.
4 | B4 | 72.4% | 5.13 geometric mean | 17.8 geometric mean
5 | B5 | 20% | 4.66 geometric mean | 7.78 geometric mean
6 | B6 | 20.1% | 4.67 geometric mean | 7.75 geometric mean
7 | B7 | 21.6% | 4.78 geometric mean | 8.23 geometric mean
8 | B8 | 16.7% | 4.84 geometric mean | 8.07 geometric mean

Target: T1, Pep-3, NH2-LEEKKGNYVVTDHG-OH
Test: Biacore 2000 SPR, mAb immobilised, pep-3 analyte
Excerpt: The first step in these examples involved the immobilization of 5,600 resonance units (RU) to 8,000 RU of each mAb tested to one flow cell (Fc) of a CM5 sensor chip using standard EDC/NHS coupling chemistry. […] Three CM5 sensor chips were used in total to immobilize all mutant mAbs with a unique mAb immobilized to each flow cell. […] Biacore 2000 optical biosensors were used for all studies.

Row | Binder | Kd | koff | kon
9 | B9 | 395 nM | 0.033 s⁻¹ | 83400 M⁻¹ s⁻¹
10 | B10 | 185 nM | 0.04 s⁻¹ | 220000 M⁻¹ s⁻¹
11 | B11 | 92 nM | 0.019 s⁻¹ | 204000 M⁻¹ s⁻¹
12 | B12 | 204 nM | 0.03 s⁻¹ | 150000 M⁻¹ s⁻¹
13 | B13 | 927 nM | 0.076 s⁻¹ | 82200 M⁻¹ s⁻¹

Target: T4, EGFRvIII-rabbit Fc fusion protein (human; rabbit, UniProt P00533 298-645)
T4 construct: made in 293F cells; also called EGFRvIII-RbFc; EGFRvIII-Rab Ig Fc fusion protein; not shown: rabbit IgG Hinge-CH2-CH3 (721 bp fragment)
Test: ELISA, minilipofection supernatant titrated 1:2 on EGFRvIII-Rab Ig Fc fusion protein (1.5 ug/ml)
Method: The secretion ELISA tests were performed as follows. […] The plates were washed five times with dH₂O. Recombinant antibodies were titrated 1:2 for 7 wells from the undiluted minilipofection supernatant. The plates were washed five times with dH₂O. A goat anti-human IgG Fc-specific HRP-conjugated antibody was added at a final concentration of 1 μg/mL for 1 hour at RT for the secretion plates and binding plates detected with 1 μg/ml Rb anti Hu Fc for 1 hour at room temperature. The plates were washed five times with dH₂O. The plates were developed with the addition of TMB for 30 minutes and the ELISA was stopped by the addition of 1 M phosphoric acid. Each ELISA plate was analyzed to determine the optical density of each well at 450 nm.

Row | Binder | Titer, antigen binding
14 | B5 | > 64 reciprocal dilution
15 | B6 | > 64 reciprocal dilution
16 | B14 | 64 reciprocal dilution
17 | B15 | > 64 reciprocal dilution
18 | B7 | > 64 reciprocal dilution
19 | B16 | > 64 reciprocal dilution
20 | B17 | > 64 reciprocal dilution
21 | B8 | > 64 reciprocal dilution

Target: T3, EGFRvIII, full length, expressed by …
Test: FACS on NR6 M cells, antibody at 0.25 µg/ml with SS Alexa anti-human IgG Fab, 37° C. for 1 hr, no glutathione (total cell-associated fluorescence)
Method: XenoMax derived IgG1 recombinant antibodies were expressed, purified and quantitated as described previously. Antibodies were further assayed for their ability to internalize the EGFRvIII receptor in NR6 M cells. […] The cells were washed with cold 10% FCS in PBS and secondary antibody (SS Alexa antihuman IgG Fab) at 3 μg/ml Fab was added and incubated for 7 mins on ice. The cells were washed with cold 10% FCS in PBS once and then resuspended in cold media. Next, two sets of the triplicate were incubated at 37° C. and the remaining set was incubated at 4° C. for 1 hr. After that the cells incubated at 4° C. and one set of the cells incubated at 37° C. were treated with glutathione (as previously mentioned) for 1 hr on ice. Then the cells were washed and resuspended in 100 μl of cold 1% FCS in PBS and analyzed by FACS. The % internalization was calculated from the geometric mean obtained from the FACS analysis [(mean at 37° C. with glutathione—mean at 4° C. with glutathione)/(mean at 37° C. without glutathione—mean at 4 C with glutathione)].

Row | Binder | FACS Geometric mean (without glutathione, 37° C.)
22 | B4 | 22.6 geometric mean
23 | B5 | 20.3 geometric mean
24 | B6 | 20 geometric mean
25 | B7 | 20.8 geometric mean
26 | B8 | 24.1 geometric mean

Target: T1, Pep-3, NH2-LEEKKGNYVVTDHG-OH
Test: Biacore 2000 SPR, mAb immobilised, pep-3 analyte, 23 C
Method: Standard EDC/NHS and carbohydrate coupling was used to covalently immobilize mAbs to a CM5 sensor chip. To minimize mass transport and crowding mAbs were immobilized at levels that gave a maximum antigen binding response (Rₘₐₓ) of no more than 50-100 RU. A reference flow cell on each chip was activated and blocked with no mAb immobilization to serve as a control.
All Biacore kinetic experiments were conducted at 23° C. […] Antigen samples were randomly injected over the biosensor surface in triplicate at 100 μL/min. Several buffer blanks were injected intermittently over the course of an experiment for double referencing. Each pep-3 concentration and blank were injected for 90 seconds. Dissociation was followed for 13 to 180 minutes.
All Biacore sensorgrams were processed using Scrubber software (Version 1.1f, BioLogic Software, Australia). Sensorgrams were first zeroed on the y-axis and then x-aligned at the beginning of the injection. Bulk refractive index changes were removed by subtracting the reference flow cell responses. The average response of all blank injections was subtracted from all analyte and blank sensorgrams to remove systematic artifacts between the experimental and reference flow cells. CLAMP biosensor data analysis software (Version 3.40, BioLogic Software, Australia) was used to determine kₐ and kd from the processed data sets. Data from all flow cells were globally fit to a 1:1 bimolecular binding model that included a mass transport term. […] The KD was calculated from the quotient kd/kₐ.

Row | Binder | Kd | koff | kon
27 | B4 | 66 nM | 0.0099 s⁻¹ | 149000 M⁻¹ s⁻¹

Target: T2, EGFRvIII peptide-OVA (PEP3 14-mer …)
Test: XenoMax screening

Row | Binder | binding result
28 | B4 | binds
29 | B8 | binds
